B1: Aeromonas aminopeptidase (protein)
chain: MPPITQQATVTAWLPQVDASQITGTISSLESFTNRFYTTTSGAQASDWIASEWQALSASLPNASVKQVSHSGYNQKSVVMTITGSEAPDEWIVIGGHLDSTIGSHTNEQSVAPGADDDASGIAAVTEVIRVLSENNFQPKRSIAFMAYAAEEVGLRGSQDLANQYKSEGKNVVSALQLDMTNYKGSAQDVVFITDYTDSNFTQYLTQLMDEYLPSLTYGFDTCGYACSDHASWHNAGYPAAMPFESKFNDYNPRIHTTQDTLANSDPTGSHAKKFTQLGLAYAIEMGSATGDTPTPGNQ
B2: Cu2+-substituted Aeromonas aminopeptidase (protein)
chain: B1 chain

Molecular target: Alanyl-human growth hormone

| Protein | % cleavage (batch mode, 4-6° C., 16 hrs) [%] | % cleavage (batch mode, 4-6° C., 54 hrs) [%] | % cleavage (batch mode, 4-6° C., 89 hrs) [%] | % cleavage (batch mode, ambient, 16 hrs) [%] | % cleavage (batch mode, ambient, 54 hrs) [%] | % cleavage (batch mode, ambient, 89 hrs) [%] | % cleavage (recirculation, 28° C., 2.92 hrs, 1.06 passes, RP-HPLC) [%] | % cleavage (recirculation, 28° C., 5.73 hrs, 2.08 passes, tryptic map) [%] | % cleavage (recirculation, 28° C., 15.57 hrs, 5.66 passes, tryptic map) [%] | % cleavage (recirculation, 28° C., 17.73 hrs, 6.45 passes, tryptic map) [%] | % cleavage (recirculation, 28° C., 20.4 hrs, 7.42 passes, tryptic map) [%] | % cleavage (recirculation, 28° C., 23.4 hrs, 8.8 passes, tryptic map) [%] | % cleavage (recirculation, 28° C., 24.4 hrs, 8.87 passes, tryptic map) [%] | % cleavage (recirculation, 28° C., 39.7 hrs, 14.44 passes, tryptic map) [%] | removal of Ala from Ala-hGH by AAP in free solution (Ala-hGH 3 mg/ml; AAP 2.0, 3.0, 4.0 units/ml; room temperature; ES/MS) | rate of Ala-hGH cleavage, batch and recirculating column modes, compared with Zn-AAP (RP-HPLC) |
| --- | --- | --- | --- | --- | --- | --- | --- | --- | --- | --- | --- | --- | --- | --- | --- | --- |
| B1 | 48 | 65 | 75 | 82 | > 97 | > 97 | > 93 | > 96.1 | > 98.6 | > 98.6 | > 98.6 | > 98.8 | > 98.8 | > 99.2 | Most of the reactions for the three highest concentrations of AAP were complete by 6 hours | – |
| B2 | – | – | – | – | – | – | – | – | – | – | – | – | – | – | – | Cu^2+-substituted AAP was the most active against Ala-hGH |

From US6794159
